Target: Flag-tagged PDI-WT (UniProt P07237)
Assay: co-IP; Flag-M2 affinity resin on COS-7 lysates (50 mM TrisHCl, 150 mM NaCl); PDI-Flag co-expressed with one sGC subunit or one α construct; Western blot, densitometry of bound over input

Chain of Flag-tagged PDI-WT (P07237 18-508): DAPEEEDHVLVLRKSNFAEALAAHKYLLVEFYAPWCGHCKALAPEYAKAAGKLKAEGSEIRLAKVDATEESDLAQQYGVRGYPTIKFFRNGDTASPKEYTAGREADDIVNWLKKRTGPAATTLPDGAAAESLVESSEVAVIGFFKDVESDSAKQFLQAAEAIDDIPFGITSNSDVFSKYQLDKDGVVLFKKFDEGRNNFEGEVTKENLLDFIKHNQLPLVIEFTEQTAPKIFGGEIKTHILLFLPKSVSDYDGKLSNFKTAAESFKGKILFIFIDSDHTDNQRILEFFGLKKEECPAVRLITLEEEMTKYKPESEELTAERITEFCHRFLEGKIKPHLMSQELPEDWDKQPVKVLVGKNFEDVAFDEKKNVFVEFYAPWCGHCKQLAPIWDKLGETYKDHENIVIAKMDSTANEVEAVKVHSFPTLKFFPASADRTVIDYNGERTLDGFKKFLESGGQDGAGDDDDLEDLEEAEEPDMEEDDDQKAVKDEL

Row | Substance | bound vs. input (densitometry) | sGC bound over input (densitometry)
1 | sGC α WT, expressed in COS-7 cells (from UniProt Q02108 1-690) (enzyme) | 1.01 | 1.08
2 | sGC β WT, expressed in COS-7 cells (from UniProt Q02153 1-619) (enzyme) | – | 0.74

Source: publication PMC4664405
